According to US20190105378:

Molecular target: FLAG-TEV recognition sequence-granzyme B AA21-240 fusion whose recognition site (SEQ ID NO: 6) has a G instead of Q, P10144
Sequence (P10144 whole entry, looked up, the tested form may be a part): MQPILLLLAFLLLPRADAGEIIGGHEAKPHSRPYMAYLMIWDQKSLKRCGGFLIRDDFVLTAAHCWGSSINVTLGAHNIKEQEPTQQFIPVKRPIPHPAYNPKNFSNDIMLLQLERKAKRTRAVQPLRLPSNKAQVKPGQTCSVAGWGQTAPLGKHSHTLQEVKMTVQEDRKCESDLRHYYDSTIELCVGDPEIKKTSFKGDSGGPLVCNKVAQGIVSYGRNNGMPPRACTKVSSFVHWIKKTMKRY

B1: tobacco etch virus protease with N-terminal FLAG sequence (product of plasmid pSTdna 1023) (protein)
chain: MDYKDDDDKGDYKDDDDKGGGTGESLFKGPRDYNPISSTICHLTNESDGHTTSLYGIGFGPFIITNKHLFRRNNGTLLVQSLHGVFKVKNTTTLQQHLIDGRDMIIIRMPKDFPPFPQKLKFREPQREERICLVTTNFQTKSMSSMVSDTSCTFPSSDGIFWKHWIQTKDGQCGSPLVSTRDGFIVGIHSASNFTNTNNYFTSVPKNFMELLTNQEAQQWVSGWRLNADSVLWGGHKVFMSKPEEPFQPVKEATQLMNELVYSQ
**Q.** B1 was tested. Which “cleavage by TEV” value did it give?
**A.** The value was “no cleavage by TEV takes place (not shown)”.
